In patent US20090047703A1:

Target: HERG-1b (human) (UniProt Q12809)
Assay: cell-based or functional assay

For HERG-1a N-Terminal Domain fused to eCFP, the deactivation kinetics, two-electrode voltage clamp in Xenopus oocytes was 10 fold.
